Test results reported in US11672846B2, “Soluble bacterial and fungal proteins and methods and uses thereof in inhibiting and dispersing biofilm” (priority 2014, dated 2023).
Entries after “also recorded” stand apart in the source; their conditions may differ.

What was measured:
[1] = system: P. aeruginosa PAO1 ΔwspFΔpslpBADpel biofilms with differentiated HL-60 cells; experiment: HL-60 neutrophil killing of P. aeruginosa biofilm (CFU plating)
Procedure: Overnight cultures of P. aeruginosa PAO1 ΔwspFΔpslpBADpel were diluted to an OD600 of 0.05 in LB+0.5% arabinose and inoculated in a 96 well tissue culture-treated plate at a final volume of 100 μl/well. The plate was incubated statically at 28° C. for 20 h. Supernatants were aspirated and 100 μL of phenol red-free RPMI+10% Fetal Bovine Serum (FBS) containing 0.5 μM of PelA47-303 was added. The plate was incubated at room temperature on a Nutator for 1 h. Following pretreatment with hydrolase, 100 μL RPMI+10% FBS containing 6×10^6 differentiated HL-60 cells were added to the wells, and plate was incubated for 90 min at 37° C., 5% CO2. Wells were aspirated and supernatant was diluted between 1/200000 and 1/400000, and plated (50 μl) onto LB agar. To aspirated wells, 200 μL of “disruption solution” (PBS containing 2 μM of PelA47-303 and 2 μM PslG31-442) was added and plate was incubated at room temperature on the Nutator for 1-1.5 h. Wells were aspirated, diluted and plated onto LB agar as above.

[2] = system: P. aeruginosa PAO1 pBADpsl; experiment: Inhibition of Psl biofilm formation in static culture (crystal violet); assay type: cell-based, Pseudomonas aeruginosa; details: specificity control
[3] = Reducing sugar assay, substrate specificity; assay type: biochemical
Procedure: […] […] The pellets were washed twice with 350 μL PBS. The wash procedure included vortexing for 5 min, sonicated in a bath for 3 min, and manual mixing by pipetting to reach homogeneity. The final pellet was resuspended in 200 μL of PBS. Samples were treated with 10-20 μM protein and incubated at 26° C. Samples were taken at 24 h. […] Briefly, 20 μL of enzyme reaction was mixed with 20 μL of 0.5 M NaOH and 20 μL of MBTH/DTT solution (1.5 mg/L 3-methyl-2-benzothiazolinone hydrazine (MBTH) and 0.5 mg/L DTT). The samples were incubated at 80° C. for 15 min before the addition of 40 μL of acidic iron reagent (0.5% (FeNH4(SO4)2).12 H2O, 0.5% sulfamic acid, and 0.25 N HCl). Samples were diluted two-fold in water, before the absorbance was quantified at 620 nm.

A. fumigatus GAG biofilm = experiment: Inhibition of GAG-dependent A. fumigatus biofilm formation (crystal violet); assay type: cell-based; details: 20 h in Brian media, crystal violet
[4] = system: A549 pulmonary epithelial cell line injured by A. fumigatus; experiment: Chromium release epithelial cell damage assay; details: 0.5 μM, 16 h
Procedure: The immortalized airway epithelial cell line A549 was loaded with chromium-51 by incubating monolayers grown in 24-well tissue culture plates with 3 mCi of ^51Cr at 37° C. in 5% CO2 for 24 h. Excess chromium was removed by washing with Hank's Balanced Salt Solution (HBSS). […] For testing germ tubes, conidia were grown for 7 h in SAB media at 37° C., then the fungus was collected and resuspended in DF12K media before 0.5 μM of hydrolase was added. The germ tubes were incubated with hydrolase for 1 h before being added to the A549 cells. After 16, 20 and 24 h of co-incubation, an aliquot of the medium above the cells was retrieved and replaced with fresh media. The cells were then lysed with 6 N NaOH and the lysate collected. The ^51Cr content of the medium and lysates was then measured in a gamma counter and the extent of epithelial cell damage was calculated as a function of the degree of ^51Cr release. Each strain was tested in triplicate, and all results were corrected for spontaneous chromium release by uninfected epithelial cells.
The methodology for prevention of epithelial cell damage caused by A. fumigatus using Sph352-298 is identical to that previously described in Example 19 for the use PelA47-303.

[5] = system: Psl biofilms of P. aeruginosa PAO1 pBADpsl; experiment: Dispersal of pre-formed Psl biofilms (crystal violet); assay type: cell-based, Pseudomonas aeruginosa
[6] = system: Pel biofilms of P. aeruginosa PAO1 ΔwspFΔpslpBADpel; experiment: Dispersal of pre-formed Pel biofilms (crystal violet); details: 38 μM and 19 μM, 2 h
Excerpt: The methodology to generate pre-formed Pel biofilms is identical to that of Psl biofilms, described in Example 4 with the exception that the strain used is P. aeruginosa PAO1 ΔwspFΔpslpBADpel.

[7] = system: PNAG-overproducing E. coli biofilms; experiment: Dispersal of pre-formed PNAG-dependent E. coli biofilms
Procedure: Bacterial cultures expressing Psl were inoculated as stated above and were grown at 37° C. overnight with shaking at 200 rpm. All cultures were diluted in 1:100 in LB and arabinose was added to a final concentration of 0.5% (w/v) to induce Psl biosynthesis. Media containing the Psl-producing cultures were supplemented with 200 μg/mL ampicillin and 100 μg/mL kanamycin. The cultures were incubated statically for 24 h at 26° C. to allow for biofilm formation. After incubation non-adherent cells and media were removed by washing the plate with deionized water three times. The wells were filled with 95 μL of 100 mM sodium HEPES buffer pH 7.0 followed by 5 μL of varying concentrations of each hydrolytic enzyme (2 nM-5 μM). Reactions were allowed to proceed for up to 60 min at 25° C. on a rotating nutator at which time, the reaction was quenched by washing the plates with deionized water. The wells were stained with 200 μL of 0.1% (w/v) crystal violet for 10 min, and washed with water three times. Crystal violet dye from Psi cultures was solubilized in 100 μL of 95% ethanol for 10 min with rotation, after which time the absorbance was measured at 595 nm using a SpectraMax M2 from Molecular Devices (Sunnyvale, Calif.). The amount of biofilm is proportional to the absorbance from staining with crystal violet (Merritt et al 2005). All reactions were completed in at least triplicate and 100 mM sodium HEPES buffer pH 7.0 was used as an untreated control. The addition of 2.5 mg/mL kanamycin to culture prior to biofilm formation was used as a positive control as no cell growth occurs.
PNAG-overproducing E. coli was grown at 37° C. overnight in LB broth supplement with 200 ug/mL ampicillin and 100 ug/mL kanamycin with shaking at 200 rpm. An E. coli μgaABCD knockout strain was used as a non-biofilm forming control for background straining.

[8] = system: Pel-dependent biofilms from P. aeruginosa PAO1 ΔwspFΔpslpBADpel; experiment: Pel biofilm dispersal by enzyme in Pluronic F-127 gel; assay type: cell-based, Pseudomonas aeruginosa; details: 100, 200 and 500 μg/mL in 20% Pluronic F-127, 1 h
Procedure: Poloxamer 407 (trade name Pluronic® F-127 or PF-127) is a hydrophilic non-ionic surfactant has been used as a drug delivery system for a number of routes of administration (Escobar-Chavez et al 2006). A 20% gel of PF-127 was prepared by mixing 1×PBS with Pluronic® F-127 at 4° C. until the polymer was dissolved. PelA47-303 was added at three concentrations; 100 μg/mL, 200 μg/mL and 500 μg/mL to this solution. Pel-dependent biofilms from strain P. aeruginosa PAO1 ΔwspFΔpslpBADpel were formed as described in Example 8. The buffer, gel and gels containing various concentrations of PelA47-303 were applied to the biofilm.

[9] = Reducing sugar assay on purified GAG; assay type: biochemical, A. fumigatus
Procedure: Crude GAG was isolated from A. fumigatus biofilms. 200 μL GAG aliquots were centrifuged to pellet the gelatinous fraction. The pellets were washed twice with 350 μL PBS. The wash procedure included vortexing for 5 min, sonicated in a bath for 3 min, and manual mixing by pipetting to reach homogeneity. The final pellet was resuspended in 200 μL of PBS. Samples were treated with 10-20 μM protein and incubated at 26° C. Samples were taken at 24 h. GAG hydrolysis was quantified using a reducing sugar assay as described previously (Anthon & Barrett 2002) with slight modifications. Briefly, 20 μL of enzyme reaction was mixed with 20 μL of 0.5 M NaOH and 20 μL of MBTH/DTT solution (1.5 mg/L 3-methyl-2-benzothiazolinone hydrazine (MBTH) and 0.5 mg/L DTT). The samples were incubated at 80° C. for 15 min before the addition of 40 μL of acidic iron reagent (0.5% (FeNH4(SO4)2).12 H2O, 0.5% sulfamic acid, and 0.25 N HCl). Samples were diluted two-fold in water, before the absorbance was quantified at 620 nm.

[10] = system: P. aeruginosa PAO1 ΔwspFΔpslpBADpel; experiment: Inhibition of Pel biofilm formation in static culture (crystal violet); details: static culture
[11] = system: pre-formed A. fumigatus GAG biofilms; assay type: cell-based; details: crystal violet
[12] = purified protein

B1: PelA47-303: soluble PelA hydrolase domain, residues 47-303, P. aeruginosa PAO1, SEQ ID NO: 12 (protein, listed as Pseudomonas aeruginosa)
chain: GGPSSVAFWYAERPPLAELSQFDWVVLEAAHLKPADVGYLKEQGSTPFAYLSVGEFDGDAAAIADSGLARGKSAVRNQAWNSQVMDLAAPSWRAHLLKRAAELRKQGYAGLFLDTLDSFQLQAEERREGQRRALASFLAQLHRQEPGLKLFFNRGFEVLPELPGVASAVAVESIHAGWDAAAGQYREVPQDDRDWLKGHLDALRAQGMPIVAIDYLPPERRDEARALAARLRSEGYVPFVSTPALDYLGVSDVEVQP
degree of microbial killing by HL-60 neutrophil cell line ([1]; 0.5 μM enzyme pretreatment, neutrophils alone approximately 22%): ~42%
bacterial killing relative to neutrophils alone ([1]; enzyme with neutrophils): ~2 fold
inhibition of Psl biofilm formation (in words) [2]: did not inhibit Psl biofilm formation
hydrolysis of chitin and chitosan [3]: not significant over background hydrolysis
concentration sufficient to prevent GAG biofilm formation (A. fumigatus GAG biofilm): ≥ 2 µM
epithelial cell injury by A. fumigatus, chromium release [4]: blocked the ability of A. fumigatus to induce pulmonary epithelial cell injury
dispersal of pre-formed Psl biofilm (in words) [5]: did not result in the loss of the Psl-dependent biofilm
dispersal of pre-formed Pel biofilm (in words) [6]: successfully dispersed the Pel biofilm; also recorded: biofilm dispersal after 2 hours
dispersal of PNAG-dependent biofilms (in words) [7]: had no affect
dispersal of Pel-dependent biofilm by enzyme in gel [8]: able to disperse the biofilm; also recorded: successfully dispersed the biofilm
GAG hydrolysis, reducing ends (in words) ([9]; 10-20 μM protein, 26° C., 24 h): number of reducing ends in solution increased
reducing ends produced relative to Sph352-298 ([9]; under assay conditions): ~2 fold
enzyme concentration that prevented Pel biofilm formation [10]: 500 nM
dispersal of pre-formed GAG biofilm (in words) [11]: elimination of the GAG biofilm
concentration to which the protein could be concentrated [12]: 8000 to 10000 µg/mL
